Test system: activated recombinant MAP kinase
Assay: Phosphorylation of GFP Erk sensors by MAP kinase, ^32P incorporation
Format: biochemical
Conditions: 10 μM substrate, 100 ng MAP kinase, 30 minutes at 30° C.; mean ± standard deviation of triplicates
Source text: Experiments were terminated and samples processed as described previously in subsection D.4. Results presented in Table X represent means of triplicate determinations ±standard deviations of ^32P-incorporation in washed pellets as described earlier.

B1: Myelin Basic Protein: a well-characterized substrate of Erk kinase (protein, UniProt P02687 1-169, looked up)
Myelin basic protein: AAQKRPSQRSKYLASASTMDHARHGFLPRHRDTGILDSLGRFFGSDRGAPKRGSGKDGHHAARTTHYGSLPQKAQGHRPQDENPVVHFFKNIVTPRTPPPSQGKGRGLSLSRFSWGAEGQKPGFGYGGRASDYKSAHKGLKGHDAQGTLSKIFKLGGRDSRSGSPMARR
^32P-Incorporation (CPM): 33361 ± 477 CPM

From patent publication US20080166749A1, “Fluorescent Protein Sensors of Post-Translational Modifications” (INVITROGEN CORPORATION, priority 1998, published 2008)
